Molecular target: PcaLOOL12 (loosenin from Phanerochaete carnosa) produced in Pichia pastoris with a C-terminal His6-tag (Phanerochaete carnosa)
Experiment: SEC-SAXS

PcaLOOL12 (loosenin from Phanerochaete carnosa) produced in Pichia pastoris with a C-terminal His6-tag (natural protein)
stoichiometry N: 2
